From the supplement of paper PMC12855868

B1: library; numbered along this chain (parent)
chain: MAAAGGARLLRAASAVLGGPAGRWLHHAGSRAGSSGLLRNRGPGGSAEASRSLSVSARARSSSEDKITVHFINRDGETLTTKGKVGDSLLDVVVENNLDIDGFGACEGTLACSTCHLIFEDHIYEKLDAITDEENDMLDLAYGLTDRSRLGCQICLTKSMDNMTVRVPETVADARQSIDVGKTS

Variants of: B1
Test: scaled log2 fold change in cell abundance, elesclomol vs control (0 = silent mean, 1 = nonsense mean) (scaled log2 ratio); higher = higher viability under elesclomol (loss of FDX1 cuproptosis function)
Details: glucose 10 mM
Method: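 Deep mutational scan of full-length human FDX1: a pooled saturation-mutagenesis ORF library (every residue 2-184 mutated to all 19 amino acids plus stop, and silent codons where available) was expressed by lentivirus in FDX1-knockout ABC1 (14 days) or HEK293T (11 days) cells grown with elesclomol (ES) or DMSO control. Variant abundance came from ORF sequencing. The log2 fold change (ES vs control, mean of duplicates) was centred on the silent-variant mean (0) and scaled to the nonsense-variant mean (1). Higher values mean greater viability under ES, i.e. loss of FDX1 function in cuproptosis.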

[1] = with ABC1 FDX1 KO, elesclomol 5 nM, 14 days
[2] = with HEK293T FDX1 KO, elesclomol 40 nM, 11 days
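Further: variant abundance is its share of total variant reads in each endpoint sample, from next-generation sequencing of the integrated ORF PCR-amplified out of genomic DNA.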

Variant	scaled log2 fold change [1]	scaled log2 fold change [2]
MAAAGGARLLRAASAVLGGPAGRWLHHAGSRAGSSGLLRNRGPGGSAEASRSLSVSARARSSSEDKITVHFINRDGETLTTKGKVGDSLLDVVVENNLDIDGFGACEGTLACSTCHLIFEDHIYEKLDAITDEENDMLDWAYGLTDRSRLGCQICLTKSMDNMTVRVPETVADARQSIDVGKTS	-0.629	0.639
MAAAGGARLLRAASAVLGGPAGRWLHHAGSRAGSSGLLRNRGPGGSAEASRSLSVSARARSSSEDKITVHFINRDGETLTTKGKVGDSLLDVVVENNLDIDGFGACEGTLACSTCHLIFEDHIYEKLDAITDEENDMLDLAYDLTDRSRLGCQICLTKSMDNMTVRVPETVADARQSIDVGKTS	0.242	0.59
MAAAGGARLLRAASAVLGGPAGRWLHHAGSRAGSSGLLRNRGPGGSAEASRSLSVSARARSSSEDKITVHFINRDGETLTTKGKVGDSLLDVVVENNLDIDGFGACEGTLACSTCHLIFEDHIYEKLDAITDEENDMLDLAYALTDRSRLGCQICLTKSMDNMTVRVPETVADARQSIDVGKTS	0.189	1
MAAAGGARLLTAASAVLGGPAGRWLHHAGSRAGSSGLLRNRGPGGSAEASRSLSVSARARSSSEDKITVHFINRDGETLTTKGKVGDSLLDVVVENNLDIDGFGACEGTLACSTCHLIFEDHIYEKLDAITDEENDMLDLAYGLTDRSRLGCQICLTKSMDNMTVRVPETVADARQSIDVGKTS	0.0343	-0.658
MAAAGGARLLRAASAVLGGPAGRWLHHAGSRAGSSGLLRNRGPGGSAEASRSQSVSARARSSSEDKITVHFINRDGETLTTKGKVGDSLLDVVVENNLDIDGFGACEGTLACSTCHLIFEDHIYEKLDAITDEENDMLDLAYGLTDRSRLGCQICLTKSMDNMTVRVPETVADARQSIDVGKTS	-0.164	–
MAAAGGARLLRAASAVLGGPAGRWLHHAGSRAGSSGLLRNRGPGGSAEASRSLSVSARARSSSEDKITVHFINRDGEELTTKGKVGDSLLDVVVENNLDIDGFGACEGTLACSTCHLIFEDHIYEKLDAITDEENDMLDLAYGLTDRSRLGCQICLTKSMDNMTVRVPETVADARQSIDVGKTS	0.171	2.14
MAAAGGARLLRAASAVLGGPAGRWLHHAGSRAGSSGLLRNRGPGGSAEASRSLSVSARARSSSEDKITVHFINRDGETLTTKGKVGDSLLDVVVENNLCIDGFGACEGTLACSTCHLIFEDHIYEKLDAITDEENDMLDLAYGLTDRSRLGCQICLTKSMDNMTVRVPETVADARQSIDVGKTS	0.108	0.138
MAAAGGARLLRAASAVLGGPAGRWLHHAGSRAGSSGLLRNRGPGGSAEASRSLSVSARARSSSEDKITVHFMNRDGETLTTKGKVGDSLLDVVVENNLDIDGFGACEGTLACSTCHLIFEDHIYEKLDAITDEENDMLDLAYGLTDRSRLGCQICLTKSMDNMTVRVPETVADARQSIDVGKTS	-0.0135	0.0709
MAAAGGARLLRAASAVLGGPAGRWLHHAGSRAGSSGLLRNRGPGGSAEASRSLSVSARARSSSEDKITVHYINRDGETLTTKGKVGDSLLDVVVENNLDIDGFGACEGTLACSTCHLIFEDHIYEKLDAITDEENDMLDLAYGLTDRSRLGCQICLTKSMDNMTVRVPETVADARQSIDVGKTS	0.112	-0.0161
MAAAGGARLLRAASAVLWGPAGRWLHHAGSRAGSSGLLRNRGPGGSAEASRSLSVSARARSSSEDKITVHFINRDGETLTTKGKVGDSLLDVVVENNLDIDGFGACEGTLACSTCHLIFEDHIYEKLDAITDEENDMLDLAYGLTDRSRLGCQICLTKSMDNMTVRVPETVADARQSIDVGKTS	-0.00826	-0.224
MAAAGGARLLRAASAVLGGPAGRWLHHAGSRAGSSGLLRNRGPGGSAEASRSLSVSARARSSSEDKITVHFINRDGETLTTKGKVGDSLLDVVVENNLDIDGFGACEGTLACSTCHLIFEDHIYEKLDAITDEENDMLILAYGLTDRSRLGCQICLTKSMDNMTVRVPETVADARQSIDVGKTS	-0.652	0.722
MAAAGGARLLRAASAVLGGPAGRWLHHAGSRAGSSGLLRNRGPGGSAEASRSLSVSARARSSSEDKITVHFINRDGETLTTKGKVGDSLLDVVVENNLDIDGFGACEGTLACSTCHLIFEDHIYEKLDAITDEENDMLDLAYGLTDRSHLGCQICLTKSMDNMTVRVPETVADARQSIDVGKTS	0.625	0.597
MAAAGGARLLRAASAVLGGPAGRWLHHAGSRAGSSGLLRNRGPGGSAEASRSLSVSARARSSCEDKITVHFINRDGETLTTKGKVGDSLLDVVVENNLDIDGFGACEGTLACSTCHLIFEDHIYEKLDAITDEENDMLDLAYGLTDRSRLGCQICLTKSMDNMTVRVPETVADARQSIDVGKTS	0.302	-0.446
MAAAGGARLLRAASAVLGGPAGRWLHHAGSRAGSSGLLRNRGPGRSAEASRSLSVSARARSSSEDKITVHFINRDGETLTTKGKVGDSLLDVVVENNLDIDGFGACEGTLACSTCHLIFEDHIYEKLDAITDEENDMLDLAYGLTDRSRLGCQICLTKSMDNMTVRVPETVADARQSIDVGKTS	0.363	-0.475
MAAAGGARLLRAASAVLGGPAGRWLHHAGSRAGSSGLLRNRRPGGSAEASRSLSVSARARSSSEDKITVHFINRDGETLTTKGKVGDSLLDVVVENNLDIDGFGACEGTLACSTCHLIFEDHIYEKLDAITDEENDMLDLAYGLTDRSRLGCQICLTKSMDNMTVRVPETVADARQSIDVGKTS	0.1	-0.362
MAAAGGARLLRAASAVLGGPAGRWLHHAGSRAGSSGLLRNRGPGGSAEASRSLSVSARARSSSEDKITVHFINRDGETLTTKGKVGDSLLDVVVENNLDIDGFGACEGTLACSTCHLIFEDHIYEKLDAITDEENDMLDLAYGLTDRSRLGCQICLTKSMDNMTVRVPETVAYARQSIDVGKTS	0.241	-0.0391
MAAAGGARLLRAASAVLGGPAGRWLHHAGSRAGSSGLLRNRGPGGSAEASRSLSVSARARSSSEDKITVHFINRDGETLTTKGKVGDSLLDVVVENNLDIDGFGACEGTLACSTCHLIFEDHIYEKLDAITDEENDMLDLAYGLTDRSRLGCQICLTKSMDNMTVRVPETVAEARQSIDVGKTS	0.188	1.27
